Source: article PMC9652331, “Cryo-EM structures of human m^6A writer complexes” (Cell Research, 2022)

Biological target: the molecule itself
Assay: cross-linking; BS3 XL-MS of purified MACOM (Fig. S4a, b): 0.5 mM BS3, 50 mM HEPES pH 7.5, 100 mM KCl, 5% glycerol, 25 °C, 2 h; pLink2

B1: Wilms' tumor 1-associated protein (WTAP), full length, N-6× His-WTAP (natural protein, human, UniProt Q15007 1-396, looked up)
chain: MTNEEPLPKKVRLSETDFKVMARDELILRWKQYEAYVQALEGKYTDLNSNDVTGLRESEEKLKQQQQESARRENILVMRLATKEQEMQECTTQIQYLKQVQQPSVAQLRSTMVDPAINLFFLKMKGELEQTKDKLEQAQNELSAWKFTPDSQTGKKLMAKCRMLIQENQELGRQLSQGRIAQLEAELALQKKYSEELKSSQDELNDFIIQLDEEVEGMQSTILVLQQQLKETRQQLAQYQQQQSQASAPSTSRTTASEPVEQSEATSKDCSRLTNGPSNGSSSRQRTSGSGFHREGNTTEDDFPSSPGNGNKSSNSSEERTGRGGSGYVNQLSAGYESVDSPTGSENSLTHQSNDTDSSHDPQEEKAVSGKGNRTVGSRHVQNGLDSSVNVQGSVL
notes: Wilms' tumor 1-associated protein (WTAP), human, full length; Stands as a homodimer in the MACOM complexes (two copies, WTAP-a and WTAP-b); No removal of the His tag is described; also called WTAP-a; WTAP-b; source: High Five insect cells, co-expressed with the other MACOM components, purified as a complex (Ni-NTA, STREP beads, SEC); not shown: 6× His, N-terminal, kept
binding result: binds
